Reference: publication PMC13123425, “A mutant complement factor H (W1183R) enhances proteolytic cleavage of von Willebrand factor by ADAMTS-13 under shear” (Journal of thrombosis and haemostasis : JTH, 2025)

Target: purified human recombinant von Willebrand factor (multimeric) (human, UniProt P04275 764-2813)
Experiment: cell-based or functional assay

cleavage product (~350 kD band) of multimeric VWF by recombinant ADAMTS-13 under vortexing-induced shear, with 0–2 μM W1183R-CFH: ~2 fold
B1: human recombinant W1183R complement factor H (natural protein, UniProt P08603 19-1231, looked up)
chain: EDCNELPPRRNTEILTGSWSDQTYPEGTQAIYKCRPGYRSLGNVIMVCRKGEWVALNPLRKCQKRPCGHPGDTPFGTFTLTGGNVFEYGVKAVYTCNEGYQLLGEINYRECDTDGWTNDIPICEVVKCLPVTAPENGKIVSSAMEPDREYHFGQAVRFVCNSGYKIEGDEEMHCSDDGFWSKEKPKCVEISCKSPDVINGSPISQKIIYKENERFQYKCNMGYEYSERGDAVCTESGWRPLPSCEEKSCDNPYIPNGDYSPLRIKHRTGDEITYQCRNGFYPATRGNTAKCTSTGWIPAPRCTLKPCDYPDIKHGGLYHENMRRPYFPVAVGKYYSYYCDEHFETPSGSYWDHIHCTQDGWSPAVPCLRKCYFPYLENGYNQNYGRKFVQGKSIDVACHPGYALPKAQTTVTCMENGWSPTPRCIRVKTCSKSSIDIENGFISESQYTYALKEKAKYQCKLGYVTADGETSGSITCGKDGWSAQPTCIKSCDIPVFMNARTKNDFTWFKLNDTLDYECHDGYESNTGSTTGSIVCGYNGWSDLPICYERECELPKIDVHLVPDRKKDQYKVGEVLKFSCKPGFTIVGPNSVQCYHFGLSPDLPICKEQVQSCGPPPELLNGNVKEKTKEEYGHSEVVEYYCNPRFLMKGPNKIQCVDGEWTTLPVCIVEESTCGDIPELEHGWAQLSSPPYYYGDSVEFNCSESFTMIGHRSITCIHGVWTQLPQCVAIDKLKKCKSSNLIILEEHLKNKKEFDHNSNIRYRCRGKEGWIHTVCINGRWDPEVNCSMAQIQLCPPPPQIPNSHNMTTTLNYRDGEKVSVLCQENYLIQEGEEITCKDGRWQSIPLCVEKIPCSQPPQIEHGTINSSRSSQESYAHGTKLSYTCEGGFRISEENETTCYMGKWSSPPQCEGLPCKSPPEISHGVVAHMSDSYQYGEEVTYKCFEGFGIDGPAIAKCLGEKWSHPPSCIKTDCLSLPSFENAIPMGEKKDVYKAGEQVTYTCATYYKMDGASNVTCINSRWTGRPTCRDTSCVNPPTVQNAYIVSRQMSKYPSGERVRYQCRSPYEMFGDEEVMCLNGNWTEPPQCKDSTGKCGPPPPIDNGDITSFPLSVYAPASSVEYQCQNLYQLEGNKRITCRNGQWSEPPKCLHPCVISREIMENYNIALRRTAKQKLYSRTGESVEFVCKRGYRLSSRSHTLRTTCWDGKLEYPTCAKR
